The text below walks through data of US20200283521A1 (GRANULAR THERAPEUTICS, published 2020).

Assay [1] concerns the target T1, human C-KIT-Fc (human, UniProt P10721 26-524).
T1 construct: also called biotinylated human C-KIT-Fc; not shown: Fc part not described
In words: HTRF competition vs Tb-h37M IgG1. (TR-FRET usually uses a lanthanide donor and a delayed reading to cut background.)

Assay [2] concerns the target T2, cynomolgus monkey C-KIT-Fc (cynomolgus monkey).
T2 construct: also called cyno C-KIT-Fc
Briefly: HTRF competition vs Tb-h37M IgG1.

The target in assay [3] is T1, human C-KIT-Fc. Briefly: direct ELISA.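 Further: Plate-coated C-KIT-Fc (1 µg/ml) probed with antibodies for 1 hr, bound IgG detected via anti-human kappa-HRP and TMB, absorbance measured at 450 nm.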 On the technique in general: In an ELISA, binding on a coated surface is turned into a signal by an enzyme label.
The target of assay [4] is T3, human C-KIT, full length, on cells (human, UniProt P10721 26-976).
T3 construct: full-length cDNA stably transfected in CHO-K1; also used here for endogenous C-KIT of TF-1 cells; also called human C-KIT+ CHO-K1 cells; C-KIT on TF-1 cells
Briefly: flow cytometry, C-KIT-transfected CHO-K1 cells, IgG1 format. (In general: A flow cytometer gives signals particle by particle.)

B1: F-C5 (antibody, IgG1, V domains shown)
VH: QVQLVQSGAEVKKPGASVKVSCKASGYTFTDYYMNWVRQAPGQGLEWMGRIYPGSGNTYYAQKFQGRVTMTRDTSTSTVYMELSSLRSEDTAVYYCARGVYYFDEWGQGTLVTVSS
VL: DIQMTQSPSSLSASVGDRVTITCRASQGVRTNLAWFQQKPGKAPKSLIYAASSRQSGVPSRFSGSGSGTDFTLTISSLQPEDFATYYCQQYNSYPRTFGGGTKVEIK
notes: IgG1; also called C-KIT-F-C5; F-05
As a reminder, the IC50 is the concentration needed to halve the response being measured. For B1, the figures for the half-maximal inhibitory concentration (IC50) (in the assay with human C-KIT-Fc [1]; in assay [2]) were 0.031 µg/mL and 0.079 µg/mL, respectively.

B2: MH5.27 (antibody, IgG1, V domains shown)
VH: QVQLVQSGAEVKKPGASVKVSCKASGYTFTNYYMNWVRQAPGQGLEWMGRIYPGTGNTYYAQKFQGRVTMTRDTSTSTVYMELSSLRSEDTAVYYCARGVWYFDTWGQGTLVTVSS
VL: DIQMTQSPSSLSASVGDRVTITCRASQGIRTNLAWFQQKPGKAPKSLIYAASSLQSGVPSRFSGSGSGTDFTLTISSLQPEDFATYYCQQYANYPRTFGGGTKVEIK
notes: IgG1
Turning to B2, the binding result in the assay with human C-KIT-Fc [3] is on record as “binds”.

B3: MH5.26 (antibody, IgG1, V domains shown)
VH: QVQLVQSGAEVKKPGASVKVSCKASGYTFTNYYMNWVRQAPGQGLEWMGRIYPGTGNTYYAQKFQGRVTMTRDTSTSTVYMELSSLRSEDTAVYYCARGVWYFDSWGQGTLVTVSS
VL: DIQMTQSPSSLSASVGDRVTITCRASQGIRTNLAWFQQKPGKAPKSLIYAASSLQSGVPSRFSGSGSGTDFTLTISSLQPEDFATYYCQQYANYPRTFGGGTKVEIK
notes: IgG1
With B3, the binding result in the assay with human C-KIT-Fc [3] is reported as “binds”.

B4: MH5.25 (antibody, IgG1, V domains shown)
VH: QVQLVQSGAEVKKPGASVKVSCKASGYTFTDFYMNWVRQAPGQGLEWMGRIYPASGNTYYAQKFQGRVTMTRDTSTSTVYMELSSLRSEDTAVYYCARGVWYFDEWGQGTLVTVSS
VL: DIQMTQSPSSLSASVGDRVTITCRASQGIRTNLAWFQQKPGKAPKSLIYAASSLQSGVPSRFSGSGSGTDFTLTISSLQPEDFATYYCQQYANYPRTFGGGTKVEIK
notes: IgG1
In the case of B4, in the assay with human C-KIT-Fc [3], the binding result is “binds”.

B5: MH5.30 (antibody, IgG1, V domains shown)
VH: QVQLVQSGAEVKKPGASVKVSCKASGYTFTNYYMNWVRQAPGQGLEWMGRIYPGAGNTYYAQKFQGRVTMTRDTSTSTVYMELSSLRSEDTAVYYCARGVWYFDSWGQGTLVTVSS
VL: DIQMTQSPSSLSASVGDRVTITCRASQGIRTNLAWFQQKPGKAPKSLIYAASSLQSGVPSRFSGSGSGTDFTLTISSLQPEDFATYYCQQYANYPRTFGGGTKVEIK
notes: IgG1
B5: the binding result with human C-KIT-Fc [3] is “binds”.

B6: C-B12 (antibody, IgG1, V domains shown)
VH: QVQLVQSGAEVKKPGASVKVSCKASGYTFTDYYMNWVRQAPGQGLEWMGRIYPGSGNTYYAQKFQGRVTMTRDTSTSTVYMELSSLRSEDTAVYYCARGVYEFDYWGQGTLVTVSS
VL: DIQMTQSPSSLSASVGDRVTITCRASQGVRNNLAWFQQKPGKAPKSLIYAASYRQSGVPSRFSGSGSGTDFTLTISSLQPEDFATYYCQQYNSYPRTFGGGTKVEIK
notes: IgG1; also called C-KIT-C-B12
Take B6: the results for the half-maximal inhibitory concentration (IC50) (in the assay with human C-KIT-Fc [1]; in assay [2]) were 0.066 µg/mL and 0.166 µg/mL, respectively.

B7: C-A7 (antibody, IgG1, V domains shown)
VH: QVQLVQSGAEVKKPGASVKVSCKASGYTFTDYYMNWVRQAPGQGLEWIGRIYPGSGNTYYAQKFQGRVTMTRDTSTSTVYMELSSLRSEDTAVYYCARGVYYFDSWGQGTLVTVSS
VL: DIQMTQSPSSLSASVGDRVTITCRASQGVRNNVAWFQQKPGKAPKSLIYYASSLQSGVPSRFSGSGSGTDFTLTISSLQPEDFATYYCQQYNSYPRTFGGGTKVEIK
notes: IgG1; also called C-KIT-C-A7
As to B7, the IC50 is 0.037 µg/mL with human C-KIT-Fc [1] and 0.081 µg/mL in assay [2].

B8: TTP2 (antibody, IgG1, V domains shown)
VH: QVQLVQSGAEVKKPGASVKVSCKASGYTFTDYYMNWVRQAPGQGLEWMGRIYPGSGNTYYAQKFQGRVTMTRDTSTSTVYMELSSLRSEDTAVYYCARGVYYYDYWGQGTLVTVSS
VL: DIQMTQSPSSLSASVGDRVTITCRASQGIRTNLAWFQQKPGKAPKSLIYAASSLQSGVPSRFSGSGSGTDFTLTISSLQPEDFATYYCQQYNSYPHTFGGGTKVEIK
notes: IgG1
For B8, the binding result (in the assay with human C-KIT-Fc [3]; in assay [4]) was “binds” each time.

B9: MH5.28 (antibody, IgG1, V domains shown)
VH: QVQLVQSGAEVKKPGASVKVSCKASGYTFTNYYMNWVRQAPGQGLEWMGRIYPGTGNTYYAQKFQGRVTMTRDTSTSTVYMELSSLRSEDTAVYYCARGVWYFDEWGQGTLVTVSS
VL: DIQMTQSPSSLSASVGDRVTITCRASQGIRTNLAWFQQKPGKAPKSLIYAASSLQSGVPSRFSGSGSGTDFTLTISSLQPEDFATYYCQQYANYPRTFGGGTKVEIK
notes: IgG1
Consider B9, for which the binding result in the assay with human C-KIT-Fc [3] is on record as “binds”.

B10: D-A10 (antibody, IgG1, V domains shown)
VH: QVQLVQSGAEVKKPGASVKVSCKASGYTFTDYYMNWVRQAPGQGLEWMGRIYPGSGNTYYAQKFQGRVTMTRDTSTSTVYMELSSLRSEDTAVYYCARGVYYFDTWGQGTLVTVSS
VL: DIQMTQSPSSLSASVGDRVTITCRASQGVRTNLAWFQQKPGKAPKSLIYAASSRQSGVPSRFSGSGSGTDFTLTISSLQPEDFATYYCQQYNSYPRTFGGGTKVEIK
notes: IgG1; also called C-KIT-D-A10
For the molecule B10, the IC50 with human C-KIT-Fc [1] turned out to be 0.027 µg/mL; in assay [2], 0.059 µg/mL.

B11: MH5.32 (antibody, IgG1, V domains shown)
VH: QVQLVQSGAEVKKPGASVKVSCKASGYTFTNYYMNWVRQAPGQGLEWMGRIYPGAGNTYYAQKFQGRVTMTRDTSTSTVYMELSSLRSEDTAVYYCARGVWYFDEWGQGTLVTVSS
VL: DIQMTQSPSSLSASVGDRVTITCRASQGIRTNLAWFQQKPGKAPKSLIYAASSLQSGVPSRFSGSGSGTDFTLTISSLQPEDFATYYCQQYANYPRTFGGGTKVEIK
notes: IgG1
For the molecule B11, the binding result with human C-KIT-Fc [3] is “binds”.

B12: TTP4 (antibody, IgG1, V domains shown)
VH: QVQLVQSGAEVKKPGASVKVSCKASGYTFTDYYMNWVRQAPGQGLEWMGRIYPGSGNTYYAQKFQGRVTMTRDTSTSTVYMELSSLRSEDTAVYYCARGVYYYDYWGQGTLVTVSS
VL: DIQMTQSPSSLSASVGDRVTITCRASQGVRTNLAWFQQKPGKAPKSLIYSASSLQSGVPSRFSGSGSGTDFTLTISSLQPEDFATYYCQQYNAYPHTFGGGTKVEIK
notes: IgG1
Take B12: the binding result (with human C-KIT-Fc [3]; in assay [4]) was “binds” in each case.

B13: MH5.29 (antibody, IgG1, V domains shown)
VH: QVQLVQSGAEVKKPGASVKVSCKASGYTFTNYYMNWVRQAPGQGLEWMGRIYPGAGNTYYAQKFQGRVTMTRDTSTSTVYMELSSLRSEDTAVYYCARGVWYYDYWGQGTLVTVSS
VL: DIQMTQSPSSLSASVGDRVTITCRASQGIRTNLAWFQQKPGKAPKSLIYAASSLQSGVPSRFSGSGSGTDFTLTISSLQPEDFATYYCQQYANYPRTFGGGTKVEIK
notes: IgG1
Turning to B13, the binding result in the assay with human C-KIT-Fc [3] was “binds”.

B14: MH5.36 (antibody, IgG1, V domains shown)
VH: QVQLVQSGAEVKKPGASVKVSCKASGYTFTNYYMNWVRQAPGQGLEWMGRIYPASGNTYYAQKFQGRVTMTRDTSTSTVYMELSSLRSEDTAVYYCARGVWYFDEWGQGTLVTVSS
VL: DIQMTQSPSSLSASVGDRVTITCRASQGIRTNLAWFQQKPGKAPKSLIYAASSLQSGVPSRFSGSGSGTDFTLTISSLQPEDFATYYCQQYANYPRTFGGGTKVEIK
notes: IgG1
On to B14, for which the binding result in the assay with human C-KIT-Fc [3] is reported as “binds”.

B15: E-E10 (antibody, IgG1, V domains shown)
VH: QVQLVQSGAEVKKPGASVKVSCKASGYTFTDYYMNWVRQAPGQGLEWMGRIYPGSGNTYYAQKFQGRVTMTRDTSTSTVYMELSSLRSEDTAVYYCARGVWYFDYWGQGTLVTVSS
VL: DIQMTQSPSSLSASVGDRVTITCRASQGVRTNVAWFQQKPGKAPKSLIYSASSLQSGVPSRFSGSGSGTDFTLTISSLQPEDFATYYCQQYNSYPRTFGGGTKVEIK
notes: IgG1; also called C-KIT-E-E10
On to B15, for which the IC50 in the assay with human C-KIT-Fc [1] was determined as 0.031 µg/mL; in assay [2], 0.097 µg/mL.

B16: TTP6 (antibody, IgG1, V domains shown)
VH: QVQLVQSGAEVKKPGASVKVSCKASGYTFTDYYMNWVRQAPGQGLEWMGRIYPGSGNTYYAQKFQGRVTMTRDTSTSTVYMELSSLRSEDTAVYYCARGVYYYDYWGQGTLVTVSS
VL: DIQMTQSPSSLSASVGDRVTITCRASQGVRTNLAWFQQKPGKAPKSLIYAASSLQSGVPSRFSGSGSGTDFTLTISSLQPEDFATYYCQQYNAYPHTFGGGTKVEIK
notes: IgG1
As to B16, the binding result (in the assay with human C-KIT-Fc [3]; in assay [4]) was “binds” in each case.

B17: MH6 (antibody, IgG1, V domains shown)
VH: QVQLVQSGAEVKKPGASVKVSCKASGYTFTDYYMNWVRQAPGQGLEWMGRIYPGSGNTYYAQKFQGRVTMTRDTSTSTVYMELSSLRSEDTAVYYCARGVYYYDYWGQGTLVTVSS
VL: DIQMTQSPSSLSASVGDRVTITCRASQGIRTNLAWFQQKPGKAPKSLIYSASSLQSGVPSRFSGSGSGTDFTLTISSLQPEDFATYYCQQYNSYPKTFGGGTKVEIK
notes: IgG1
Take B17: the binding result (with human C-KIT-Fc [3]; in assay [4]) was “binds” each time.

B18: TTP3 (antibody, IgG1, V domains shown)
VH: QVQLVQSGAEVKKPGASVKVSCKASGYTFTDYYMNWVRQAPGQGLEWMGRIYPGSGNTYYAQKFQGRVTMTRDTSTSTVYMELSSLRSEDTAVYYCARGVYYLDYWGQGTLVTVSS
VL: DIQMTQSPSSLSASVGDRVTITCRASQGVRTNLAWFQQKPGKAPKSLIYSASSLQSGVPSRFSGSGSGTDFTLTISSLQPEDFATYYCQQYNAYPKTFGGGTKVEIK
notes: IgG1
As to B18, the binding result (with human C-KIT-Fc [3]; in assay [4]) was “binds” each time.

B19: MH5.31 (antibody, IgG1, V domains shown)
VH: QVQLVQSGAEVKKPGASVKVSCKASGYTFTNYYMNWVRQAPGQGLEWMGRIYPGAGNTYYAQKFQGRVTMTRDTSTSTVYMELSSLRSEDTAVYYCARGVWYFDTWGQGTLVTVSS
VL: DIQMTQSPSSLSASVGDRVTITCRASQGIRTNLAWFQQKPGKAPKSLIYAASSLQSGVPSRFSGSGSGTDFTLTISSLQPEDFATYYCQQYANYPRTFGGGTKVEIK
notes: IgG1
As for B19, the binding result with human C-KIT-Fc [3] is recorded as “binds”.
